For the assay, the target named is p35 (UniProt Q15078). In words: co-IP.
Sequence of UniProt Q15078 (Q15078 whole entry): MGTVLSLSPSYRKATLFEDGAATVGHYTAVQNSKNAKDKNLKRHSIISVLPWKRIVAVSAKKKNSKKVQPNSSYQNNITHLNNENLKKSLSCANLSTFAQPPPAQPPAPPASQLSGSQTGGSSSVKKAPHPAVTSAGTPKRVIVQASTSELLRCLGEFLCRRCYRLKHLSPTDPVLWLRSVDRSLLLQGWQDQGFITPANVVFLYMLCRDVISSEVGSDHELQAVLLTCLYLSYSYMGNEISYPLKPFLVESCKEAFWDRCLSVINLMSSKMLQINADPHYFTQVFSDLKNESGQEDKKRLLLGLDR

Regarding “HA-CDK5-DN (D145N) (from UniProt Q00535 1-292) (enzyme)”, the cdk5 recovered by anti-p35 IP with nestin co-expressed, normalised to no nestin is 1.12.

The values above are taken from publication doi:10.1101/695155.
